The assay addresses T1, MeCP2 (Homo sapiens, UniProt P51608).
T1 construct: GST; purchased Prospec
Briefly: In vitro SUMOylation assay with recombinant proteins. Format: biochemical. To be noted: E1, E2, PIAS1 and MeCP2 proteins added; FIG. 1a. As to the method: In vitro SUMOylation assay was performed by using the SUMO link kit according to the manufacturer's instructions (Active Motif, Carlsbad, Calif.). Recombinant GST-tagged MeCP2 protein (Prospec, East Brunswick, N.J.), His-tagged PIAS1 protein purified from His-bind resin (Novagen, Wis.), and GST-tagged SENP1 protein (Enzo, Ann Arbor, Mich.) were used for assays at 30° C. for 3 h and then boiled in Laemmli sample buffer at 95° C. for 10 min. The in vitro SUMOylation product was subject to 8% SDS-PAGE followed by transferring onto the NC membrane. The membrane was immunoblotted with anti-His and anti-GST antibodies.

T1 sequence (P51608 whole entry, species assumed): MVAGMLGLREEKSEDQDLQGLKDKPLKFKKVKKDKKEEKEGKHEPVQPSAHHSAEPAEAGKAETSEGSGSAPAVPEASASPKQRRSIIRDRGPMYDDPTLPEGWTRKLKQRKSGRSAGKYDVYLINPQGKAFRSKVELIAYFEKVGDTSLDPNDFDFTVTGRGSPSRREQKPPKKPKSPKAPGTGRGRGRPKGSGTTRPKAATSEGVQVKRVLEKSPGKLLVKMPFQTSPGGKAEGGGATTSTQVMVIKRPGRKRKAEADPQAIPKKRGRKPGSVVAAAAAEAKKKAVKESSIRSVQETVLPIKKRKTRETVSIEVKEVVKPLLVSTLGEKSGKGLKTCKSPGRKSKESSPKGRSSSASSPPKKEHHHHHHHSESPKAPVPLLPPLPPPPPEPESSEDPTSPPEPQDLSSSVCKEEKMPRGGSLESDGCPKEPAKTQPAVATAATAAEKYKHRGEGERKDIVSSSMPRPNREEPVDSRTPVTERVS

B1: SENP1: an enzyme that removes the sumo molecule from sumo-conjugated protein (protein, UniProt Q9P0U3 1-644, looked up)
Sentrin-specific protease 1: MDDIADRMRMDAGEVTLVNHNSVFKTHLLPQTGFPEDQLSLSDQQILSSRQGHLDRSFTCSTRSAAYNPSYYSDNPSSDSFLGSGDLRTFGQSANGQWRNSTPSSSSSLQKSRNSRSLYLETRKTSSGLSNSFAGKSNHHCHVSAYEKSFPIKPVPSPSWSGSCRRSLLSPKKTQRRHVSTAEETVQEEEREIYRQLLQMVTGKQFTIAKPTTHFPLHLSRCLSSSKNTLKDSLFKNGNSCASQIIGSDTSSSGSASILTNQEQLSHSVYSLSSYTPDVAFGSKDSGTLHHPHHHHSVPHQPDNLAASNTQSEGSDSVILLKVKDSQTPTPSSTFFQAELWIKELTSVYDSRARERLRQIEEQKALALQLQNQRLQEREHSVHDSVELHLRVPLEKEIPVTVVQETQKKGHKLTDSEDEFPEITEEMEKEIKNVFRNGNQDEVLSEAFRLTITRKDIQTLNHLNWLNDEIINFYMNMLMERSKEKGLPSVHAFNTFFFTKLKTAGYQAVKRWTKKVDVFSVDILLVPIHLGVHWCLAVVDFRKKNITYYDSMGGINNEACRILLQYLKQESIDKKRKEFDTNGWQLFSKKSQEIPQQMNGSDCGMFACKYADCITKDRPINFTQQHMPYFRKRMVWEILHRKLL
modifications: GST tag
notes: an enzyme that removes the sumo molecule from sumo-conjugated protein
For the molecule B1, the “MeCP2 SUMOylation” value was “blocked”.

These data come from patent publication US20170290886A1, “TREATMENT OF NEURODEVELOPMENTAL DISORDERS” (Academia Sinica, priority 2016, published 2017).
